In this assay the target is T1, TIM3 protein (cat #CHI-MF-210T3-0050, Chimerigen).
T1 construct: Bought recombinant protein used in SPR; also called TLM3 protein
The assay can be described thus: SPR (OpenSPR), TIM3 protein immobilised on chip, peptide in flow. The method, then:
SPR assay: Affinity identification between the TIM3-targeting binding peptides and TIM3 was performed by immobilizing TIM3 protein (50 μg/mL) on the surface of a nanogold sensor chip upon activation of EDC/NHS. […] The competitive binding ability of the TIM3-targeting binding peptides to the ligand was identified by immobilizing the Galectin-9 protein (25 μg/mL) on a sensor chip at a detection concentration of 100 μg/mL for the TIM3-targeting binding peptides, and at a concentration of the mixed sample of 100 μg/mL TIM3-targeting binding peptides and 10 μg/mL TIM3 protein. The detection sample was loaded at a flow rate of 20 μL/min for about 7 min according to the instrument instructions. The KD, ka and kd values were calculated and analyzed by Trace Drawer Evaluation (version 2.0) software.

No end group written: not given here.

As to HDAFPRPHLFRN (not fully specified) [P1301-12-peptide (targeting TIM3)], the Kd was found to be 80.1 µM and the koff was found to be 0.00428 s⁻¹.

B1: P24-12-peptide (targeting TIM3) (peptide)
peptide: GSWNTFRAQPTI
notes: Synthetic 12-mer from phage display screening
Regarding B1, binding was put at a Kd of 0.095 µM and the koff turned out to be 1.69e-05 s⁻¹.

B2: K10-20-peptide (targeting TIM3) (peptide)
peptide: SPFYYSGHQWVPHPRQAASY
notes: Synthetic 20-mer from phage display screening
On to B2, for which binding was put at a Kd of 26.1 µM and the koff was 0.023 s⁻¹.

B3: K3-20-peptide (targeting TIM3) (peptide)
peptide: SQEVFAWTFSPRWTTAPKAL
notes: as for B2
Molecule B3 showed a Kd of 20.1 µM and an off-rate (koff) of 0.0132 s⁻¹.

B4: P1307-12-peptide (targeting TIM3) (peptide)
peptide: SHDTRSPFTWGR
notes: as for B1
The molecule B4 had a dissociation constant Kd of 117 µM and a koff of 0.00789 s⁻¹.

B5: K5-20-peptide (targeting TIM3) (peptide)
peptide: WQQNNPHLWDVFLGVPRTTE
notes: as for B2
With B5, the equilibrium dissociation constant (Kd) came out at 18 µM and the koff was found to be 0.016 s⁻¹.

B6: P29-12-peptide (targeting TIM3) (peptide)
peptide: ADFRVMADMSMY
notes: as for B1
In the case of B6, the dissociation constant (Kd) was 200 µM and the off-rate constant (koff) stood at 0.00747 s⁻¹.

B7: K2-20-peptide (targeting TIM3) (peptide)
peptide: FTYAHPVSHRWESSVHVDQW
notes: as for B2
Molecule B7 returned a Kd of 227 µM and a koff of 0.0103 s⁻¹.

B8: P1303-12-peptide (targeting TIM3) (peptide)
peptide: ALWPSSSMSSTI
notes: as for B1
B8 yielded a dissociation constant Kd of 26.3 µM, a koff of 0.00308 s⁻¹ and a kon of 117 M⁻¹ s⁻¹.

B9: P20-12-peptide (targeting TIM3) (peptide)
peptide: LTPHKHHKHLHA
notes: as for B1
Turning to B9, binding was put at a Kd of 24.3 µM and the off-rate constant (koff) worked out at 0.00625 s⁻¹.

The values are drawn from US20230095558A1 (SPARX BIOTECH JIANGSU, published 2023).
